# Molecular target: Epstein-Barr Nuclear Antigen 1 (EBNA1), wild type (Epstein-Barr virus) (UniProt P03211)
substance,measurement,value
"Epstein-Barr Nuclear Antigen 1 (EBNA1), wild type (from UniProt P03211 1-641) (natural protein)","transactivation of TKp-luciferase reporters with one to 20 EBNA1-binding sites, 20 sites over a single site, C33a cells",150 fold
